pKd: −log10 of the molar value.
How the values were obtained:
[1] = target: human kidney PTH/PTHrP receptor (full-length cDNA HKrk) (human); test: affinity from competitive radioreceptor assay on COS-7 cells expressing HKrK
[2] = target: rat bone PTH/PTHrP receptor clone R15B (rat); test: affinity from competitive radioreceptor assay on COS-7 cells expressing R15B
[3] = target: human kidney PTH/PTHrP receptor (full-length cDNA HKrk) (human); test: competitive radioreceptor assay on COS-7 cells; HKrK against R15B
[4] = target: rat bone PTH/PTHrP receptor clone R15B (rat); test: apparent Kd, competitive radioreceptor assay on COS-7 cells expressing the rat bone receptor (FIG. 17)
[5] = target: human kidney PTH/PTHrP receptor (full-length cDNA HKrk) (human); test: competitive radioreceptor assay on COS-7 cells; human receptor against rat bone receptor
[6] = target: opossum kidney PTH/PTHrP receptor clone OK-H (opossum); test: cell-based or functional assay
[7] = target: rat bone PTH/PTHrP receptor clone R15B (rat); test: radioreceptor assay, radiolabelled ligand (~200,000 cpm) on COS-7 cells expressing R15B
[8] = target: human kidney PTH/PTHrP receptor (full-length cDNA HKrk) (human); test: radioreceptor assay, radiolabelled ligand (~200,000 cpm) on COS-7 cells expressing the human receptor
[9] = target: human kidney PTH/PTHrP receptor (full-length cDNA HKrk) (human); test: apparent Kd, competitive radioreceptor assay on COS-7 cells expressing the human receptor (FIG. 17)
[10] = target: human kidney PTH/PTHrP receptor (full-length cDNA HKrk) (human); test: competitive radioreceptor assay on COS-7 cells; human receptor against rat receptor
[11] = target: human kidney PTH/PTHrP receptor (full-length cDNA HKrk) (human); test: affinity from competitive radioreceptor assay on COS-7 cells expressing HKrk

| Substance | pKd [1] | pKd [2] | fold higher affinity against R15B [3] [fold] | pKd [4] | fold difference in apparent Kd against the rat bone PTH/PTHrP receptor [5] [fold] | concentration of intracellular free calcium (Fura-2) [6] [nm] | specific binding [7] [%] | specific binding [8] [%] | pKd [9] | fold lower affinity against the rat receptor [10] [fold] | pKd [11] |
| --- | --- | --- | --- | --- | --- | --- | --- | --- | --- | --- | --- |
| [Nle^8,18, Tyr^34]bPTH(7-34)amide (from UniProt P01268 38-65) (peptide) | 7.22 | 5.70 | 35 | – | – | – | – | – | – | – | – |
| [Nle^8,18, Tyr^34]bPTH(1-34)amide (from UniProt P01268 32-65) (peptide) | – | – | – | 8.00 | 2 | 39 | 8.1 | 10.1 | 8.30 | – | – |
| [Nle^8,18, Tyr^34]bPTH(3-34)amide (from UniProt P01268 34-65) (peptide) | 8.15 | 7.35 | 7 | – | – | – | – | – | – | – | – |
| [Tyr^36]PTHrP(1-36)amide (from UniProt P12272 37-72) (peptide) | – | 8.00 | – | – | – | – | 7.1 | 7.6 | – | 2 to 4 | 7.46 |

Source: patent US20030153041A1
